Reference: US20030166850A1 (Pfizer, published 2003)

T1: proline rich domain of RGS9-2, amino acids 460-672 of human RGS9 (bait, plasmid pAS1-RGS9CT) (human, UniProt O75916 463-674)
T1 sequence: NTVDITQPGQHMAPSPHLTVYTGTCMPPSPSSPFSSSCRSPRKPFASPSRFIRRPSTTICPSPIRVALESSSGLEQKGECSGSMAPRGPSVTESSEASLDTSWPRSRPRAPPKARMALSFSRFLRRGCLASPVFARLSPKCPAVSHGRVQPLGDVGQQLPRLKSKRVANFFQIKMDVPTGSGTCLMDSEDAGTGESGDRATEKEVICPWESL


Assays:
[1] = target: T1, proline rich domain of RGS9-2, amino …; test: yeast two-hybrid screen of a human fetal brain library
Source text: (§1) To identify interactors of the proline rich domain of RGS9, amino acids 460-672 of human RGS9 (FIG. 1A), was used as “bait” to screen a pretransformed human fetal brain library (Clontech). The RGS9-2 cDNA used was cloned by PCR from a human brain cDNA library using the primers 5′ primer: […], 3′ primer: […]. The DNA encoding amino acids 460-672 of RGS9-2, was amplified by PCR using the primer sequences 5′ […] and 3′ […] and ligated into the NdeI and BamH 1 sites of pAS1 (Clontech). The pAS1-RGS9CT plasmid was used to transform the yeast strain PJ69-2A (Clontech) using lithium acetate. The library was screened using a yeast mating protocol by incubating the library (MATα) with the bait strain ([…]) overnight at 30° C. according to the manufacturer's protocols. The mating mixture was plated on SD/-His/-Leu/-Trp and incubated at 30° C. until colonies appeared. Colonies were picked and miniprep DNA prepared. The insert in the library plasmid was amplified using the LD-Insert Screening amplimer set of primers (Clontech) and the amplicon sequenced on an ABI 3700 capillary sequencer. The sequences obtained were used as queries against the GENBANK database using BLAST. The 6 most common hits were selected for further study and were replated on SD/-His/-Leu/-Trp containing 0-40 mM […]. […]

[2] = target: T1, proline rich domain of RGS9-2, amino …; test: yeast two-hybrid assay
Source text: as §1

binding result [1]	binding result [2]	Binder
binds	–	evectin clone discovered in the yeast two-hybrid screen (amino acids 101-190) (other, Prey clone from the pretransformed human fetal brain library (Clontech); also called latter half of the evectin protein) KTALLEANSTPVRVYSPYQDYYEVVPPNAHEATYVRSYYGPPYAGPGVTHVIVREDPCYSAGAPLAMGMLAGAATGAALGSLMWSPCWF
–	binds	EVT ΔC54 (C terminal deletion mutant of evectin) (other) MALVRGGWLWRQSSILRRWKRNWFALWLDGTLGYYHDETAQDEEDRVLIHFNVRDIKIGPECHDVQPPEGRSRDGLLTVNLREGGRLHLCAETKDDALAWKTALLEANSTPVRVYSPYQDYYEVVPPNAHEATYVR
